PMC11950179 (Nature Communications, 2025)

Biological target: the molecule itself
Assay: cryo-EM structure

B1: human phosphorylase kinase β subunit (PHKB), phosphorylated (natural protein, UniProt Q93100 1-1093, looked up)
chain: MAGAAGLTAEVSWKVLERRARTKRSGSVYEPLKSINLPRPDNETLWDKLDHYYRIVKSTLLLYQSPTTGLFPTKTCGGDQKAKIQDSLYCAAGAWALALAYRRIDDDKGRTHELEHSAIKCMRGILYCYMRQADKVQQFKQDPRPTTCLHSVFNVHTGDELLSYEEYGHLQINAVSLYLLYLVEMISSGLQIIYNTDEVSFIQNLVFCVERVYRVPDFGVWERGSKYNNGSTELHSSSVGLAKAALEAINGFNLFGNQGCSWSVIFVDLDAHNRNRQTLCSLLPRESRSHNTDAALLPCISYPAFALDDEVLFSQTLDKVVRKLKGKYGFKRFLRDGYRTSLEDPNRCYYKPAEIKLFDGIECEFPIFFLYMMIDGVFRGNPKQVQEYQDLLTPVLHHTTEGYPVVPKYYYVPADFVEYEKNNPGSQKRFPSNCGRDGKLFLWGQALYIIAKLLADELISPKDIDPVQRYVPLKDQRNVSMRFSNQGPLENDLVVHVALIAESQRLQVFLNTYGIQTQTPQQVEPIQIWPQQELVKAYLQLGINEKLGLSGRPDRPIGCLGTSKIYRILGKTVVCYPIIFDLSDFYMSQDVFLLIDDIKNALQFIKQYWKMHGRPLFLVLIREDNIRGSRFNPILDMLAALKKGIIGGVKVHVDRLQTLISGAVVEQLDFLRISDTEELPEFKSFEELEPPKHSKVKRQSSTPSAPELGQQPDVNISEWKDKPTHEILQKLNDCSCLASQAILLGILLKREGPNFITKEGTVSDHIERVYRRAGSQKLWLAVRYGAAFTQKFSSSIAPHITTFLVHGKQVTLGAFGHEEEVISNPLSPRVIQNIIYYKCNTHDEREAVIQQELVIHIGWIISNNPELFSGMLKIRIGWIIHAMEYELQIRGGDKPALDLYQLSPSEVKQLLLDILQPQQNGRCWLNRRQIDGSLNRTPTGFYDRVWQILERTPNGIIVAGKHLPQQPTLSDMTMYEMNFSLLVEDTLGNIDQPQYRQIVVELLMVVSIVLERNPELEFQDKVDLDRLVKEAFNEFQKDQSRLKEIEKQDDMTSFYNTPPLGKRGTCSYLTKAVMNLLLEGEVKPNNDDPCLIS
modifications: phosphorylated by PKAc; phosphoserine at Ser12, Ser27 and Ser701
binding result: binds
